Test results: patent US20260092920A1 (FIBROINOVA BIOMEDICAL TECHNOLOGY GUANGZHOU, published 2026)

Target: T1, His-tagged extracellular domain of antigen DDR2 (human, UniProt Q16832 22-399)
T1 construct: range 22-399; Captured on Ni-NTA sensors in BLI; also called extracellular domain protein of the DDR2 antigen; DDR2 antigen; not shown: His tag
T1 sequence (looked up): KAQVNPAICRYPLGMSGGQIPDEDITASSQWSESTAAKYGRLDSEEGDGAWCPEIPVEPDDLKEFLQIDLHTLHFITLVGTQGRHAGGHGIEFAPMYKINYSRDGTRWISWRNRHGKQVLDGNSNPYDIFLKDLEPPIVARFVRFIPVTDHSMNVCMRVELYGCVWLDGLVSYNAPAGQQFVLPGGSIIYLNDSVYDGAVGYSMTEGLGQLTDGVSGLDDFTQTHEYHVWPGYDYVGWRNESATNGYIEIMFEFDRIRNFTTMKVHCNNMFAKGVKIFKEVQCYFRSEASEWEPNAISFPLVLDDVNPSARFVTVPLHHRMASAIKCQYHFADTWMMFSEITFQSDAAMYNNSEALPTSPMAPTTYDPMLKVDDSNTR
Test: BLI (ForteBio), His-tagged DDR2 extracellular domain captured on Ni-NTA sensor, nanobody 100 nM to 3.125 nM in solution, 1:1 fit
Protocol: For the DDR2 nanobody 1A12 described above, based on the ForteBio bio-layer interferometry (BLI) platform for molecular interaction analysis, the affinity of the nanobody for the extracellular domain protein of the DDR2 antigen was analyzed and detected by determining the affinity of the antibody for the antigen by using the BLI method.
The kinetic curves were made, and the relevant parameters were calculated. Appropriate binding and dissociation curves of several concentration gradients were selected. All the curves were fitted using the 1:1 binding model. Three curves with the best fitting degrees were selected for plotting and analysis. Finally, important parameters such as affinity value, binding constant, and dissociation constant were obtained.

Kd: 4.36 nM
B1: DDR2 nanobody 1A12 (VHH)
VHH: EVQLVESGGGLVQPGGSLRLSCAASGYILSPNVMGWFRQAPGKGRELVAAISWGDGRTYYPDSVEGRFTISRDNAKRMVYLQMNSLRAEDTAVYYCAASRKGYPSTRSDPYNYWGQGTQVTVSS
notes: VHH of an alpaca heavy chain antibody raised against the human DDR2 extracellular domain; Expressed and purified; also called Nb-DDR2; 1A12-VHH
